Source: publication PMC9317961, “Deafness-related protein PDZD7 forms complex with the C-terminal tail of FCHSD2” (Biochemical Journal, 2022)

T1: PDZD7 PDZ3 (a.a. 842-946) (mouse, UniProt E9Q9W7 842-946)
T1 construct: As used in ITC; also called WT PDZD7 PDZ3; source: E. coli BL21 (DE3), purified (nickel-NTA, SEC); not shown: Trx (from the vector pET.32M.3C)
T1 sequence (looked up): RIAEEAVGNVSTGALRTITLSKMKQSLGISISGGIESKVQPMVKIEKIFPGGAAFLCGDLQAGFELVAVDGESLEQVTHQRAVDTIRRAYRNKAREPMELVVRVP

T2: Trx-tagged PDZD7 PDZ3 (mouse, UniProt E9Q9W7 842-946)
T2 construct: As used in SEC-MALS, thioredoxin tag kept; monomer by SEC-MALS; also called Trx-PDZD7 PDZ3; source: E. coli BL21 (DE3), purified (nickel-NTA, SEC)
T2 sequence (looked up): T1 sequence (looked up)

B1: FCHSD2 tail (a.a. 729-740) (peptide, UniProt Q3USJ8 729-740, looked up)
chain: TEKMEDVEITLV
notes: As used in ITC; also called WT FCHSD2 tail; source: E. coli BL21 (DE3), purified (nickel-NTA, SEC)
B2: Trx-tagged FCHSD2 tail (peptide, UniProt Q3USJ8 729-740, looked up)
chain: TEKMEDVEITLV
notes: FCHSD2, residues 729-740; As used in SEC-MALS, thioredoxin tag kept; monomer by SEC-MALS; also called Trx-FCHSD2 tail; source: E. coli BL21 (DE3), purified (nickel-NTA, SEC)

Experiments:
[1] = target: T1, PDZD7 PDZ3 (a.a. 842-946); test: ITC; MicroCal iTC200, 25°C; ~500 μM protein in the syringe titrated into ~50 μM partner in the cell; one-site binding model; details: both partners purified
[2] = target: T2, Trx-tagged PDZD7 PDZ3; test: SEC-MALS; Superose 12 10/300 GL column, miniDAWN and Optilab detectors; ~300 μl of 50 μM protein loaded; Trx-tagged proteins alone and mixed; details: both partners purified

Row | Binder | Kd [1] [nM] | stoichiometry N [2]
1 | B1 | ~1510 | –
2 | B2 | – | 1
